Test results reported in publication doi:10.1101/2022.09.01.506260.

B1: human 14-3-3ε, P62258-1 1-255 (natural protein)
chain: MDDREDLVYQAKLAEQAERYDEMVESMKKVAGMDVELTVEERNLLSVAYKNVIGARRASWRIISSIEQKEENKGGEDKLKMIREYRQMVETELKLICCDILDVLDKHLIPAANTGESKVFYYKMKGDYHRYLAEFATGNDRKEAAENSLVAYKAASDIAMTELPPTHPIRLGLALNFSVFYYEILNSPDRACRLAKAAFDDAIAELDTLSEESYKDSTLIMQLLRDNLTLWTSDMQGDGEEQNKEALQDVEDENQ
B2: full length CrkII, dimer (CrkII^FL dimer), P46108-1 1-304 (natural protein)
chain: MAGNFDSEERSSWYWGRLSRQEAVALLQGQRHGVFLVRDSSTSPGDYVLSVSENSRVSHYIINSSGPRPPVPPSPAQPPPGVSPSRLRIGDQEFDSLPALLEFYKIHYLDTTTLIEPVSRSRQGSGVILRQEEAEYVRALFDFNGNDEEDLPFKKGDILRIRDKPEEQWWNAEDSEGKRGMIPVPYVEKYRPASASVSALIGGNQEGSHPQPLGGPEPGPYAQPSVNTPLPNLQNGPIYARVIQKRVPNAYDKTALALEVGELVKVTKINVSGQWEGECNGKRGHFPFTHVRLLDQQNPDEDFS

Legend:
[1] = biological target: T1, human 14-3-3ε (human), P62258; assay: crystal structure; conditions: remark: other sources report otherwise
T1 chain: B1 chain

[2] = biological target: full length CrkII, dimer (CrkII^FL dimer) (human), P46108; assay: SEC; conditions: remark: other sources report otherwise

Row | Binder | stoichiometry N [1] | percent of the total isolated protein that is dimer [2] [%] | stoichiometry N [2]
1 | B1 | 2 |  | 
2 | B2 |  | 10 | 2
